Data as given in PMC8565326, “Structural dissection of sequence recognition and catalytic mechanism of human LINE-1 endonuclease”.

How the values were obtained:
[1] = biological target: T1, L1-EN D145A/Y226K (LINE-1 ORF2p endonuclease domain) (human, UniProt O00370 1-238, D145A;Y226K); experiment: X-ray crystallography; no Mg2+; 0.1 M MES pH 6.0, 0.2 M NaCl, 30% Jeffamine ED-2003; 2.8 A; Co-crystallization: protein 16-24 mg/ml in 300 mM NaCl, 15 mM HEPES pH 7.5, 2% glycerol, 1 mM TCEP, DNA:protein 1.2:1; crystallization pH 6.0 (dna17) or 4.5 (dna14); temperature not stated; conditions: protein: recombinant; tags: N-terminal 6xHis-SUMO, cleaved with Ulp1; single-nucleotide T/A overhangs at the ends
[2] = biological target: T1, L1-EN D145A/Y226K (LINE-1 ORF2p …); experiment: X-ray crystallography; no Mg2+; 0.1 M sodium acetate pH 4.5, 0.2 M ammonium acetate, 15% PEG 4000; 2.8 A; Co-crystallization: protein 16-24 mg/ml in 300 mM NaCl, 15 mM HEPES pH 7.5, 2% glycerol, 1 mM TCEP, DNA:protein 1.2:1; crystallization pH 6.0 (dna17) or 4.5 (dna14); temperature not stated; conditions: protein: recombinant; tags: N-terminal 6xHis-SUMO, cleaved with Ulp1; single-nucleotide T/A overhangs at the ends

T1 sequence (O00370 1-238 D145A/Y226K): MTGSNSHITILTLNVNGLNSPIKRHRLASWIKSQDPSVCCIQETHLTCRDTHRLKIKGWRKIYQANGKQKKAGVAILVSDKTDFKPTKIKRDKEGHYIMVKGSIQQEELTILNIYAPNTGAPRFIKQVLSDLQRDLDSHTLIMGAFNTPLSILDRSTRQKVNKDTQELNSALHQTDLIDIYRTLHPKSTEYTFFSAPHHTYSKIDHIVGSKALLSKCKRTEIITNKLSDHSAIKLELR

Binder | binding result [1] | binding result [2]
dna17 (dsDNA) DNA 1: GCTCCTTTTTAAGGGCTA DNA 2: AGCCCTTAAAAAGGAGCT | binds | –
dna14 (dsDNA) DNA 1: GCTCCTTTTTAAGGA DNA 2: CCTTAAAAAGGAGCT | – | binds
